Data: PMC11493271, “The N-terminal activation function AF-1 domain of ERα interacts directly with the C-terminal AF-2-holding ligand-binding domain to recruit the coactivator proteins” (PLOS ONE, 2024)
“Also recorded” adds a separate entry of the source. Blank lines part the entries; values can stand above or below the molecule they belong to.

Key:
[1] = target: full-length estrogen receptor alpha (ERα), wild type (1-595) (human) (UniProt P03372)
[2] = target: desNTD(AF-1)-ERα, ERα C-terminal fragment with amino acid residues 181-595 (human) (UniProt P03372)
[3] = target: full-length estrogen receptor alpha (ERα), wild type (1-595) (human) (UniProt P03372); remark: listed apart in the source
[4] = target: T1, full-length ERα (Homo sapiens, UniProt P03372); assay: ERα-NTD(AF-1) inhibition assay: co-expression with full-length ERα, luciferase reporter gene assay in HeLa cells; assay type: cell-based; conditions: for effect on transcription activity of full-length ERα: plasmid 0.01–2.00 μg/well with full-length ERα 0.05 μg/well, E2 0.1, 1 or 50 nM, Fig 3
T1 construct: […]; host or cells: HeLa cells
T1 sequence (P03372 1-595): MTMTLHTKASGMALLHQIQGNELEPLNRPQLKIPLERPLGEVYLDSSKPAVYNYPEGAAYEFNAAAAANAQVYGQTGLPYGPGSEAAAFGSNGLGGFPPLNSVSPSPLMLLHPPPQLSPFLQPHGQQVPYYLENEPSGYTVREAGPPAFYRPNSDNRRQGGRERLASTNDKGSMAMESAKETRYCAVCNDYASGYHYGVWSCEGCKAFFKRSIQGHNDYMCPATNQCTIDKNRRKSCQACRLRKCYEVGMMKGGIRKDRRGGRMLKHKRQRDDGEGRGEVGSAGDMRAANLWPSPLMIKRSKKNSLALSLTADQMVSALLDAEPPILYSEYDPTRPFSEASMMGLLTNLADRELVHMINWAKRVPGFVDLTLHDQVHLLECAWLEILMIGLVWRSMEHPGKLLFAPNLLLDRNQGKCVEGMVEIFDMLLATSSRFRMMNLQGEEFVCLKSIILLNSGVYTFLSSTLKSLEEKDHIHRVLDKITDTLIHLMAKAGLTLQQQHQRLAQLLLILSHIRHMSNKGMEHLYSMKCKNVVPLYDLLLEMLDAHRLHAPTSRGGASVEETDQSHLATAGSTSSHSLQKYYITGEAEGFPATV
Protocol: Other expression plasmids were used in fixed amounts: full-length ERα/pcDNA3.1 (0.05 μg/well), 3 × ERE/pGL3 (0.15 μg/well), and pGL4.74 (0.05 μg/well) (Table 1).
Gene transfections followed by luciferase reporter gene assays were carried out basically as described above.
Thus, each distinct maximal activity was evaluated precisely as a percentage.

[5] = target: T2, desNTD(AF-1)-ERα (Homo sapiens, UniProt P03372); assay: Luciferase reporter gene assay for desNTD(AF-1)-ERα, alone or co-expressed with ERα-NTD(AF-1), in HeLa cells
T2 sequence (P03372 181-595): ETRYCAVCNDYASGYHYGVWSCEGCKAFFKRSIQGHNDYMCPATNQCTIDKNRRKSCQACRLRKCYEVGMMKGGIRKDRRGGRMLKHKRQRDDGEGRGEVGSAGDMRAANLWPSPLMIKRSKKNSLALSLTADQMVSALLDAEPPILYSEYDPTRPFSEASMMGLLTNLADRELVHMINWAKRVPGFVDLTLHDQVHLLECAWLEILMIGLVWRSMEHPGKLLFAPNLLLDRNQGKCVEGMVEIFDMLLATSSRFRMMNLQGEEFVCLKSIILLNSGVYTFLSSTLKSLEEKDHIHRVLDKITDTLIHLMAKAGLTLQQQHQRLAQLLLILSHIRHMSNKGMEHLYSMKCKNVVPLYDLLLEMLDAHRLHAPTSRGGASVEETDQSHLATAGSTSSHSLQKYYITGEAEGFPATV
Protocol: (§1) The luciferase reporter gene assays were carried out exactly as described above.

[6] = system: 3 × ERE/pGL3 luciferase reporter; assay: Transcription activity of truncated ERα derivatives in the luciferase reporter gene assay (HeLa cells); conditions: plasmid 250 ng/well
Protocol: as §1

luciferase reporter gene assay in HeLa cells: IC50 of the ERα-NTD(AF-1) plasmid (amount transfected per well of a 6-well microplate) from the curve of the maximal activity of ERα/E2 [1]: 631 ng/well | luciferase reporter gene assay in HeLa cells: apparent IC50 of the ERα-NTD(AF-1) plasmid (amount transfected per well of a 6-well microplate) for inhibition of desNTD(AF-1)-ERα [2]: 863 ng/well | luciferase reporter gene assay in HeLa cells: apparent IC50 of the ERα-NTD(AF-1) plasmid (amount transfected per well of a 6-well microplate) for the activity of 10 nM E2 on full-length ERα [3]: 836 ng/well
Molecule: ERα-NTD(AF-1), untethered free N-terminal fragment of estrogen receptor alpha (residues 1-180), non-tagged (from UniProt P03372 1-180) (domain or fragment)

IC50 from transfection amount vs maximal activity of ERα/E2 ([4]; E2 dose-response maxima, plasmid per well of 6-well microplate, Fig 4C): 631 ng/well | effect on transcription activity of full-length ERα [4]: reduced in a dose-dependent manner | apparent IC50 for inhibition of full-length ERα ([4]; residual activity of 10 nM E2, plasmid per well of 6-well microplate, Fig 4A): 836 ng/well | mode of inhibition of full-length ERα ([4]; with respect to E2): non-competitive inhibitor | reduction in E2-induced transactivation compared to desNTD(AF-1)-ERα alone ([5]; ERα-NTD(AF-1): desNTD(AF-1)-ERα = 1:1, desNTD(AF-1)-ERα 250 ng/well): ~20% | apparent IC50 for inhibition of desNTD(AF-1)-ERα ([5]; plasmid amount per well of 6-well microplate used for transfection): 863 ng/well | reduction in E2-induced transactivation compared to desNTD(AF-1)-ERα alone ([5]; ratio 2:1): 44% | reduction in E2-induced transactivation compared to desNTD(AF-1)-ERα alone ([5]; ratio 3:1): 62% | reduction in E2-induced transactivation compared to desNTD(AF-1)-ERα alone ([5]; ratio 4:1): 73% | reduction in E2-induced transactivation compared to desNTD(AF-1)-ERα alone ([5]; ratio 5:1): 85% | reduction in E2-induced transactivation compared to desNTD(AF-1)-ERα alone ([5]; ratio 6:1): 91%
B1: ERα-NTD(AF-1): ERα N-terminal fragment with amino acid residues 1–180, expressed from plasmid ERα-NTD(AF-1)/pcDNA3.1 (protein)
chain: MTMTLHTKASGMALLHQIQGNELEPLNRPQLKIPLERPLGEVYLDSSKPAVYNYPEGAAYEFNAAAAANAQVYGQTGLPYGPGSEAAAFGSNGLGGFPPLNSVSPSPLMLLHPPPQLSPFLQPHGQQVPYYLENEPSGYTVREAGPPAFYRPNSDNRRQGGRERLASTNDKGSMAMESAK
transcription activation (response to E2) ([6]; construct expressed alone): completely inactive; also recorded: completely devoid of transcription activation | relative activity (% of wild-type full-length ERα) ([6]; maximal E2 activity): 0%

effect on transcription activity of full-length ERα [4]: inhibits full-length ERα
B2: FLAG-ERα-NTD(AF-1): ERα-NTD(AF-1) tagged at the N-terminus with DYKDDDDK, a FLAG-epitope peptide (protein)
chain: B1 chain
modifications: left off: FLAG, N-terminal, kept
